Laboratory results taken from publication PMC10151503, “Specific DNA binding of archaeal histones HMfA and HMfB”.

Assays:
HMfA [1] = biological target: T1, HMfA (Methanothermus fervidus, UniProt P48781 1-69); test: MST; Hill h 1.08 ± 0.21; MST: 50 mM Tris-HCl pH 8, 75 mM KCl, 20 nM DNA (40 nM diluted 1:1), 5 min at room temperature (0.2% Tween20 where noted); TPM: 50 mM Tris-HCl pH 7, 75 mM KCl; conditions: protein: recombinant; chain copies: 2; label: 5' Cy5 top strand; blunt
HMfB D14A K30A E34A [2] = biological target: T2, HMfB D14A K30A E34A (Methanothermus fervidus, UniProt P19267 1-69, D14A;K30A;E34A); test: MST; 0.2% Tween20; Hill h 3.51 ± 0.77; MST: 50 mM Tris-HCl pH 8, 75 mM KCl, 20 nM DNA (40 nM diluted 1:1), 5 min at room temperature (0.2% Tween20 where noted); TPM: 50 mM Tris-HCl pH 7, 75 mM KCl; conditions: protein: recombinant; chain copies: 4; label: 5' Cy5 top strand; blunt
HMfB [3] = biological target: T3, HMfB (Methanothermus fervidus, UniProt P19267 1-69); test: MST; first (specific) step; Hill h 1.24 ± 0.91; MST: 50 mM Tris-HCl pH 8, 75 mM KCl, 20 nM DNA (40 nM diluted 1:1), 5 min at room temperature (0.2% Tween20 where noted); TPM: 50 mM Tris-HCl pH 7, 75 mM KCl; conditions: protein: recombinant; chain copies: 2; label: 5' Cy5 top strand; blunt
HMfB [4] = biological target: T3, HMfB; test: MST; second (nonspecific) step; Hill h 1.44 ± 0.47; MST: 50 mM Tris-HCl pH 8, 75 mM KCl, 20 nM DNA (40 nM diluted 1:1), 5 min at room temperature (0.2% Tween20 where noted); TPM: 50 mM Tris-HCl pH 7, 75 mM KCl; conditions: protein: recombinant; chain copies: 2; label: 5' Cy5 top strand; blunt
HMfA [5] = biological target: T1, HMfA; test: MST; Hill h 1.08 ± 0.19; MST: 50 mM Tris-HCl pH 8, 75 mM KCl, 20 nM DNA (40 nM diluted 1:1), 5 min at room temperature (0.2% Tween20 where noted); TPM: 50 mM Tris-HCl pH 7, 75 mM KCl; conditions: protein: recombinant; chain copies: 2; label: 5' Cy5 top strand; blunt
HMfB [6] = biological target: T3, HMfB; test: MST; Hill h 3.30 ± 0.97; MST: 50 mM Tris-HCl pH 8, 75 mM KCl, 20 nM DNA (40 nM diluted 1:1), 5 min at room temperature (0.2% Tween20 where noted); TPM: 50 mM Tris-HCl pH 7, 75 mM KCl; conditions: protein: recombinant; chain copies: 2; label: 5' Cy5 top strand; blunt
HMfB D14A K30A E34A [7] = biological target: T2, HMfB D14A K30A E34A; test: MST; 0.2% Tween20; Hill h 4.09 ± 0.62; MST: 50 mM Tris-HCl pH 8, 75 mM KCl, 20 nM DNA (40 nM diluted 1:1), 5 min at room temperature (0.2% Tween20 where noted); TPM: 50 mM Tris-HCl pH 7, 75 mM KCl; conditions: protein: recombinant; chain copies: 4; label: 5' Cy5 top strand; blunt
HMfA [8] = biological target: T1, HMfA; test: MST; Hill h 1.23 ± 0.16; MST: 50 mM Tris-HCl pH 8, 75 mM KCl, 20 nM DNA (40 nM diluted 1:1), 5 min at room temperature (0.2% Tween20 where noted); TPM: 50 mM Tris-HCl pH 7, 75 mM KCl; conditions: protein: recombinant; chain copies: 2; label: 5' Cy5 top strand; blunt
HMfB [9] = biological target: T3, HMfB; test: MST; second (nonspecific) step; Hill h 1.30 ± 0.38; MST: 50 mM Tris-HCl pH 8, 75 mM KCl, 20 nM DNA (40 nM diluted 1:1), 5 min at room temperature (0.2% Tween20 where noted); TPM: 50 mM Tris-HCl pH 7, 75 mM KCl; conditions: protein: recombinant; chain copies: 2; label: 5' Cy5 top strand; blunt
HMfA [10] = biological target: T1, HMfA; test: MST; Hill h 0.992 ± 0.21; MST: 50 mM Tris-HCl pH 8, 75 mM KCl, 20 nM DNA (40 nM diluted 1:1), 5 min at room temperature (0.2% Tween20 where noted); TPM: 50 mM Tris-HCl pH 7, 75 mM KCl; conditions: protein: recombinant; chain copies: 2; label: 5' Cy5 top strand; blunt
HMfB [11] = biological target: T3, HMfB; test: MST; first (specific) step; Hill h 7.45 ± 3.5; MST: 50 mM Tris-HCl pH 8, 75 mM KCl, 20 nM DNA (40 nM diluted 1:1), 5 min at room temperature (0.2% Tween20 where noted); TPM: 50 mM Tris-HCl pH 7, 75 mM KCl; conditions: protein: recombinant; chain copies: 2; label: 5' Cy5 top strand; blunt
HMfB [12] = biological target: T3, HMfB; test: MST; second (nonspecific) step; Hill h 0.564 ± 0.30; error exceeds value; MST: 50 mM Tris-HCl pH 8, 75 mM KCl, 20 nM DNA (40 nM diluted 1:1), 5 min at room temperature (0.2% Tween20 where noted); TPM: 50 mM Tris-HCl pH 7, 75 mM KCl; conditions: protein: recombinant; chain copies: 2; label: 5' Cy5 top strand; blunt

T1 sequence (P48781 whole entry): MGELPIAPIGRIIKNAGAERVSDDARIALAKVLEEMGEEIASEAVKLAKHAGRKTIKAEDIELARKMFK
T3 sequence (P19267 whole entry): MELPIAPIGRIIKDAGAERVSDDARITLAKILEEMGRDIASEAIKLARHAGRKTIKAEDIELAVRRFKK
T2 sequence (P19267 whole entry D14A/K30A/E34A): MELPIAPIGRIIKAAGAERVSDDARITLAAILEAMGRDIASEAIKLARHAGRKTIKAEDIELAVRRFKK

B1: Clone20 78 bp (dsDNA)
DNA 1: GGATCCCTGTCGGCACAGTTGAGCGATCAAAAACGCCGTAGAACGCTTTAATTGATAATCAAAGGCCGCAGAGAGCTC
DNA 2: GAGCTCTCTGCGGCCTTTGATTATCAATTAAAGCGTTCTACGGCGTTTTTGATCGCTCAACTGTGCCGACAGGGATCC
Kd (HMfA [1]): 3.75 ± 0.1 µM | Kd (HMfB D14A K30A E34A [2]): 19.6 ± 1.19 µM | Kd (HMfB [3]): 0.243 ± 0.16 µM | Kd (HMfB [4]): 2.99 ± 0.81 µM

B2: Nonspecific 78 bp (dsDNA)
DNA 1: CGGCGCAAATTCGTGACCAGTTGCATCAGCTGCGTGAGCTGTTTATCGCAGCATCGTAACAGGATAGTGAAGAAGACT
DNA 2: AGTCTTCTTCACTATCCTGTTACGATGCTGCGATAAACAGCTCACGCAGCTGATGCAACTGGTCACGAATTTGCGCCG
Kd (HMfA [5]): 16.5 ± 6.7 µM | Kd (HMfB [6]): 0.915 ± 0.089 µM | Kd (HMfB D14A K30A E34A [7]): 22 ± 0.71 µM

B3: Clone20L 78 bp (dsDNA)
DNA 1: GGATCCCTGTCGGCACAGTTGAGCGATCAAAAACGCCGTAGATTATCGCAGCATCGTAACAGGATAGTGAAGAAGACT
DNA 2: AGTCTTCTTCACTATCCTGTTACGATGCTGCGATAATCTACGGCGTTTTTGATCGCTCAACTGTGCCGACAGGGATCC
Kd (HMfA [8]): 8.09 ± 1.4 µM | Kd (HMfB [9]): 4.11 ± 1 µM

B4: Clone20R 78 bp (dsDNA)
DNA 1: CGGCGCAAATTCGTGACCAGTTGCATCAGCTGCGTGCGTAGAACGCTTTAATTGATAATCAAAGGCCGCAGAGAGCTC
DNA 2: GAGCTCTCTGCGGCCTTTGATTATCAATTAAAGCGTTCTACGCACGCAGCTGATGCAACTGGTCACGAATTTGCGCCG
Kd (HMfA [10]): 7.34 ± 2.8 µM | Kd (HMfB [11]): 0.66 ± 0.047 µM | Kd (HMfB [12]): 12.3 ± 27 µM
